The subject of data set [1] is JHU-022 head and neck cancer xenografts. Kind of data set: Quantitative viral gene expression (β-gal) in vivo, tumor and liver. Also on record: species or system athymic nude (nu/nu) mice. The following applies: 4 wt %. The protocol: Head and neck cancer xenografts were established by subcutaneously injecting 2×10^6 JHU-022 cells suspended in 200 μl Phosphate Buffer Saline (PBS) bilaterally in the flank of athymic nude (nu/nu) mice. Tumors were allowed to grow for two weeks to reach an average diameter of 7 mm. […] Virus-polymer solutions were prepared by thawing SELP and virus stocks and mixing them gently with physiological saline. Mice were anesthetized using 4 wt % isofluorane mixed with oxygen, and intratumorally injected with 25 μl of the polymer-virus solutions using a Hamilton syringe. Mice were euthanized on days 7, 14, and 21 and tumor and liver tissue were isolated. CPRG β-gal colorimetric assays were performed as described previously in the scientific literature. […] Recovered tissue lysates were then centrifuged for 45 minutes at 14,000 rpm and, subsequently, upper aqueous layers were used for β-gal quantification. […]
Polymer structures and compositions that formed robust hydrogels were selected for matrix-mediated delivery of reporter genes in a murine model of HNSCC. […] Animals were sacrificed at days 7, 14, and 21 for analysis of gene expression, and analyzed using a colorimetric tissue lysate assay for β-galactosidase. […]

The target in another data set is MMP-9 (Homo sapiens, UniProt P14780). Kind of data set: Hydrogel protein loss in the presence of MMP-9. The class given is biochemical. The following applies: 10 wt % hydrogel, MMP-9 10 nM, two weeks. The procedure:
(§1) The properties of hydrogels formed from SELPs are strongly dependent on the shear applied to liquid solutions of polymer prior to gelation. SELPs solubilized in phosphate buffered saline were loaded into a 1 ml luer-lock syringe connected at the hub to another 1 ml luer-lock syringe via two 27G needles, joined by a section of 0.0155″ HPLC tubing. The SELP solution was passed through this device at maximum hand pressure for five full bidirectional cycles, at which point it was used for studies.
(§2) Hydrogels were characterized for their sensitivity to MMP degradation in the context of protein loss from the gel, changes in mechanical properties, and release of model 100 nm fluorescent nanoparticles. […] Syringes were sealed with Parafilm and allowed to gel upright overnight at 37° C. […]
(§3) Protein loss was quantified using a Modified Lowry Assay Kit, and using known SELP solutions for the standard curve instead of the supplied bovine serum albumin, as SELP contains few Lowry-reactive amino acids. The mechanical properties of SELPs were evaluated in cyclic compression at 1 Hz and 1% strain, with ˜10 grams of preloading applied for 10 minutes to eliminate stress relaxation. Stress was measured using a 2 lb load cell. Release was quantified by measuring the fluorescence of release samples with an excitation/emission of 260/515. […]

The next data set deals with T1, MMP-2 (Homo sapiens, UniProt P08253).
T1 sequence (P08253 110-660): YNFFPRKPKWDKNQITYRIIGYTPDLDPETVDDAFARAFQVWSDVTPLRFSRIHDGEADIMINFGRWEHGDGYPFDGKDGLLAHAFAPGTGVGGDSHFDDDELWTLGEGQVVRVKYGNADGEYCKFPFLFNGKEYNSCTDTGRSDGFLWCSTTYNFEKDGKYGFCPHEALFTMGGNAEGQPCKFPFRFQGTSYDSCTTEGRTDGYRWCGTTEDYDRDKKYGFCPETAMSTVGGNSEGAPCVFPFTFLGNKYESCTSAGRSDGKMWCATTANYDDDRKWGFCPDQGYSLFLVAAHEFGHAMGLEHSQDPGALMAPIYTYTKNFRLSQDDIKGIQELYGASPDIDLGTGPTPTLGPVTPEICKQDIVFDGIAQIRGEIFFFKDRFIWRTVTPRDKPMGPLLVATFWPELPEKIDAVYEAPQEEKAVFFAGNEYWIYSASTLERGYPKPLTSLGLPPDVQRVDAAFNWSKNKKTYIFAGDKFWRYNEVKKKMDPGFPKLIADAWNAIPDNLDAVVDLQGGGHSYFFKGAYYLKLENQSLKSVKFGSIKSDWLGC
Kind of data set: Hydrogel protein loss in the presence of MMP-2. The class given is biochemical. The following applies: 10 wt % hydrogel, MMP-2 10 nM, two weeks. The procedure: as §1, §2, §3

Sequence of MMP-9 (P14780 94-707): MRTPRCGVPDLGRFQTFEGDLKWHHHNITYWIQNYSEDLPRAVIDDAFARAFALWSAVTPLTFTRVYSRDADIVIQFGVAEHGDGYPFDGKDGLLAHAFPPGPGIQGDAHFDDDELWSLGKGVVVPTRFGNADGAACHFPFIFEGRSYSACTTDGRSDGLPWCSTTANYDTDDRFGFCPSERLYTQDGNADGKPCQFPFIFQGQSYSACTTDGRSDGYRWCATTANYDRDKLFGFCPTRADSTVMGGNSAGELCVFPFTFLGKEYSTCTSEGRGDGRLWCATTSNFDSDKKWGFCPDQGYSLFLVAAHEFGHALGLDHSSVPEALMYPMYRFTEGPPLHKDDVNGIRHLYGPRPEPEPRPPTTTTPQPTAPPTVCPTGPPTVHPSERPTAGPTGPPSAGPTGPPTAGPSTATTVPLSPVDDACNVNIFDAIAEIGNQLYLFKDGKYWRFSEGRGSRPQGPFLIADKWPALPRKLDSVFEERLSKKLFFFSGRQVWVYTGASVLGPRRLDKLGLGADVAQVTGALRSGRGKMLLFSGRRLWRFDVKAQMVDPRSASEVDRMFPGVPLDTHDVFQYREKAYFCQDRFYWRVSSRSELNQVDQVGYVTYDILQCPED

B1: SELP815K: silk-elastin-like protein polymer, longer silk units, fifteen elastin units, lysine elastin unit; monomer repeated 6 times (SEQ ID NO. 21) (protein)
chain: MDPVVLQRRDWENPGVTQLNRLAAHPPFASDPMGAGSGAGAGSGAGAGSGVGVPGVGVPGVGVPGVGVPGKGVPGVGVPGVGVPGVGVPGVGVPGVGVPGVGVPGVGVPGVGVPGVGVPGVGVPGVGVPGAGAGSGAGAGSGAGAGSGAGAGSGAGAGSGAGAGAGSGAGAGSGAGAGSGVGVPGVGVPGVGVPGVGVPGKGVPGVGVPGVGVPGVGVPGVGVPGVGVPGVGVPGVGVPGVGVPGVGVPGVGVPGVGVPGAGAGSGAGAGSGAGAGSGAGAGSGAGAGSGAGAGAGSGAGAGSGAGAGSGVGVPGVGVPGVGVPGVGVPGKGVPGVGVPGVGVPGVGVPGVGVPGVGVPGVGVPGVGVPGVGVPGVGVPGVGVPGVGVPGAGAGSGAGAGSGAGAGSGAGAGSGAGAGSGAGAGAGSGAGAGSGAGAGSGVGVPGVGVPGVGVPGVGVPGKGVPGVGVPGVGVPGVGVPGVGVPGVGVPGVGVPGVGVPGVGVPGVGVPGVGVPGVGVPGAGAGSGAGAGSGAGAGSGAGAGSGAGAGSGAGAGAGSGAGAGSGAGAGSGVGVPGVGVPGVGVPGVGVPGKGVPGVGVPGVGVPGVGVPGVGVPGVGVPGVGVPGVGVPGVGVPGVGVPGVGVPGVGVPGAGAGSGAGAGSGAGAGSGAGAGSGAGAGSGAGAGAGSGAGAGSGAGAGSGVGVPGVGVPGVGVPGVGVPGKGVPGVGVPGVGVPGVGVPGVGVPGVGVPGVGVPGVGVPGVGVPGVGVPGVGVPGVGVPGAGAGSGAGAGSGAGAGSGAGAGSGAGAGSGAGAMDPGRYQDLRSHHHHHH
modifications: monomer repeated 6 times; Hybrid of Homo sapein and Bombyx mori
For the molecule B1, the “tumor transfection (β-gal) compared to free virus” value in data set [1] (Ad.CMV.LacZ 5×10^8 PFU intratumoral, week one) is reported as “more than 50 fold”. The “difference in tumor vs. liver transfection” value in data set [1] (Ad.CMV.LacZ, week two) is on record as 55 fold. The “higher protein loss compared to control” value with MMP-9 and with MMP-2 was “statistically insignificant” throughout.

The record behind these values is patent US10253089B2, “Matrix metalloproteinase cleavable protein polymers for cancer gene therapy” (The University of Utah Research Foundation, priority 2012, dated 2019).
